Primed or numbered codes have the meaning given here. Where no end group is shown, it is not given here. [ ]: non-standard residue; d: D form. TAMRA = 5(6)-carboxytetramethylrhodamine; PEG6′ = [PEG]6, polyethylene glycol
Tests used:
α-cobratoxin [1] = molecular target: T1, α-cobratoxin (Naja kaouthia, UniProt P01391 1-71); assay: fluorescence polarisation; conditions: both partners purified
α-cobratoxin [2] = molecular target: T1, α-cobratoxin; assay: fluorescence polarisation; conditions: both partners purified; remark: listed apart in the source

T1 sequence (P01391 whole entry): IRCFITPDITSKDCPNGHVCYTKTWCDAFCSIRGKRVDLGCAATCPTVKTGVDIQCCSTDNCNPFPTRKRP

Row | Binder | IC50 (α-cobratoxin [1]) | Ki (α-cobratoxin [2]) | Kd (α-cobratoxin [2])
1 | Ac-HAKTYMWDGWYMPTSH-NH2 [peptide 1 (Ac-HAKTYMWDGWYMPTSH-NH2)] | 29 µM | 2 µM | –
2 | {TAMRA}-HAKTYMWDGWYMPTSH-NH2 [peptide 9 (TAMRA-HAKTYMWDGWYMPTSH-NH2)] | – | – | 52 µM
3 | [PEG6′]YMWDGWYM-NH2 [peptide 12 ([PEG]6-YMWDGWYM-NH2)] | – | 26 µM | –

Reference: PMC7705965 (Journal of Medicinal Chemistry, 2020)
